Among the data in patent publication US20220073643A1 are EC50 values, retold here.

B1: 407E11H8 (antibody, V domains shown)
VH: DVQLVESGGGLVQPGGSRKLSCAASGFTFSDFGMHWIRQTPEKGLEWVAYISSGSRPIYYADTVKGRFTISRDNPKNTLFLQMTSLRSEDTAMYFCVRFYFGNSFDHWGQGTLVTVSA
VL: DIVMTQSPSFLTVTAGEKVTMTCRSSQNLLNSGNLKNYLTWYQQKPGQPPKLLISWASTRESGVPDRFTGSGSGTDFTLTISSVQPEDLALYYCQNAYSFPLTFGAGTKLELK
B2: 277F1F8 (antibody, V domains shown)
VH: QAYLQQSGPELVRSGASVKMSCKASGYTFTSHNMHWVKQTPGQGLEWIGYINPGNGGNNYNQKFKGKATLTADTSSSTAYMQISSLTSEDSAVYFCARDYYGNSFAFWGQGTLVTVSA
VL: DIVMTQSPSSLTETAGEKVSMSCKSSQSLLNSGNQKNYLTWYQQKPGQPPKLLIYWASTRESGVPDRFTGSGSGTDFTLTISSVQAEDLAVYYCQNDYRFPFTFGAGTKLELK
B3: 407A8G10 (antibody, V domains shown)
VH: B1 VH with D31G, V97A, F101Y
VL: B1 VL with T22S, N28S, L35Q, K36R, S55Y, T78A, P86A
B4: 391F1G2 (antibody, V domains shown)
VH: B1 VH with D31S, I37V, T40A, R56S, V97A, F99I, F101Y, D106A, H107Y
VL: B2 VL with E13V, S20A, S28T, I54L, D97A, R99Y, F100Y, F102L, A106S
B5: 392A11C8 (antibody, V domains shown)
VH: B1 VH with D31G, V97A, F101Y
VL: B1 VL with T22S, N28S, L35Q, S55Y, P86A
B6: 292D9C7 (antibody, V domains shown)
VH: QVQLKESGPGLVAPSQSLSITCTVSGFSLTDYGVSWIRQPPGKGLEWLGVIWGGGNAYYNSALKSRLSISKDNSKSQVFLKMNSLRTDDTAMYYCAKNGLLRYLDYWGQGSTLTVSS
VL: B2 VL with I2T, E13V, S20T, T75R, A86V, V91I, R99Y, F100Y, F102L, L110V
B7: 391H11H3 (antibody, V domains shown)
VH: B1 VH with D31G, K65Q, V97A, F101Y, A118S
VL: B1 VL with T22S, R24K, N28S, L35Q, S55Y, P86A
B8: 370E2B12C3 (antibody, V domains shown)
VH: QVQLKESGPGLVAPSQSLSITCTVSGFSLTTYGVHWVRQPPGKGLEWLGVIWAGGSTNYNSALMSRVSINKDNSKSQVFIKMNSLQADDTALYYCARAAYYGNGLDYWGQGTTLTVSS
VL: B2 VL with E13V, S20T, S28T, R60G, Y93F, D97A, R99F, F100Y, A106G, L112I
B9: 196A12B10 (antibody, V domains shown)
VH: QIQWVQSGPELKKPRETVKISCKASGYTFTDYSMHWVKQAPGKGLKWMGWINSETGEATYADDFRGRFALSLETSATTAFLQINSLKNEDTGTYFCARFYYGNSFASWGQGTTLTVSS
VL: B2 VL with S7F, E13V, S20T, S22T, S32G, Q48L, D76E, D97N, R99Y, F102L
B10: 394C2G5 (antibody, V domains shown)
VH: B1 VH with D31G, I51V, V97A, F101Y
VL: B1 VL with T22S, R24K, N28S, L35Q, S55Y, S82N, S83N, P86A, K113T
B11: 279E8B8 (antibody, V domains shown)
VH: QAYLQQSGAELVRSGASVKISCKASGYTFASHNMHWVKQTPGQGLEWIGYIYPGNGGTKYNQKFTGKATLSADTSSSTAYLQISSLTSEDSAVYFCARDYFGNSFVYWGQGTLVTVSA
VL: B2 VL with T14K, S22R, E87D, R99M, F100Y
B12: 286C7F11 (antibody, V domains shown)
VH: B6 VH with G53N, G54R, A57T, K81R, R86Q, N98H, G99D, L100F, Y103F, S111T
VL: B2 VL with I2V, E13V, S20T, L52I, T78S, S82T, Q95L, R99Y, F100Y, F102L
B13: 395B3C11 (antibody, V domains shown)
VH: B1 VH with D31G, K65Q, V97A, F101Y, A118S
VL: B1 VL with T22S, R24K, N28S, L35Q, S55Y, P86A
B14: 393C2C5 (antibody, V domains shown)
VH: B1 VH with D31S, I37V, T40A, R56S, V97A, R98T, F101Y, D106A, H107Y
VL: B2 VL with E13V, S20T, S28T, P46S, D97A, R99S, F100Y, F102V, A106S, L110V
B15: 280F3B6 (antibody, V domains shown)
VH: B2 VH with P9A, N52Y, N58T, A97T, F107Y
VL: B2 VL with T14K, K18R, L30F, R99W, F100Y
B16: 406F11G8 (antibody, V domains shown)
VH: B1 VH with D31S, I37V, T40A, R56S, P75S, V97A, F99I, F101Y, D106A, H107Y
VL: B2 VL with E13V, S20A, S28T, D97A, R99Y, F100Y, F102L, A106S
B17: 406E1H7 (antibody, V domains shown)
VH: B1 VH with D31G, K65Q, V97A, F101Y, A118S
VL: B1 VL with T22S, R24K, N28S, L35Q, S55Y, P86A
B18: 407H12E6 (antibody, V domains shown)
VH: B1 VH with F29V, D31S, I37V, T40A, R56S, M93I, V97A, F101Y
VL: B2 VL with E13V, A15T, S20T, P49S, A86T, Y93F, D97N, R99F, F102L
B19: 198F10B8 (antibody, V domains shown)
VH: QAYLQQSGAELVRSGASVRMSCKASGYTFSSYNMHWVKQTPGQGLEWIGYIYPGNGGTNYNQKFKDKATLTADTSSSTAFIQISSLTSEDSAVYFCLTGRGFAYWGQGTLVTVSA
VL: B2 VL with E13V, K18R, S20T, L30F, W56R, R99S, F100Y, F102L, A106V
B20: 392C2F10 (antibody, V domains shown)
VH: EVQLQQSGPELVKPGASMKISCKASGYSFTGYTMNWVKQSLGKNLEWIGLINPFNGGTTYNQKFKGKATLTVDKSSSTAYMELLSLTSDDSAVYYCTRGDYWGQGTTLTVSS
VL: DIVMTQSPSSLTVTAGEKVTMSCKSSQSLLNSGNQKNYLTWYQQKPGQPPKLLIYWASTRESGVPDRFAGSGSGTDFTLTISSVQAEDLAVYYCQSDYSYPTFGAGTKLELK
B21: 406G3C4 (antibody, V domains shown)
VH: EIQLQQSGPELMKPGASVRISCKASGYSFISYYIYWVKQSHGKGLEWIGYIDPFNGNTNYNQKFKGKATLTVDRSSSTAYIHLNSLTSEDSAVYYCAIVNGYGRGAMDYWGQGTSVTVSS
VL: QIVLTQSPAIMSASPGEKVTMTCSASSSISYMHWYQQKSGTSPKRWIYDTSKLASGVPARFSGSGSGTSYSLTISSMEAEDAATYYCQQWSSNPLTFGDGTKLELK
B22: 405G8F11 (antibody, V domains shown)
VH: DVQLVESGGGLVQPGGSRKLSCVTSGFTFSSFGMHWVRQAPEKGLEWVAYISSGSSPIYYADTVKGRFTISRDNPKNTLFLQMSSLRSEDTAMYFCARFYYGNSFAYWGQGTLVTVSA
VL: DIVMTQSPSSLTVTAGEKVTMNCKSSQSLLNSGNQKNYLTWYQQKLGQPPKLLMYWASTRESGVPDRFTGSGSGTDFTLTISSVQAEDLAVYFCQSAFSYPLTFGAGTKLELK

Where a chain is given by its changes, count along the chain named.

In the assay the target is Claudin18.2-His protein (human). As to the kind of experiment: indirect ELISA on coated Claudin18.2-His.
Regarding B1, the EC50 worked out at 0.017 µg/mL.

In turn, B2 came in with an EC50 of 0.0158 µg/mL.

The molecule B3 had an EC50 of 0.00554 µg/mL. In turn, B4 returned an EC50 of 0.00836 µg/mL.

B5 registered a 50% effective concentration (EC50) of 0.021 µg/mL.

In the case of B6, the EC50 turned out to be 0.0232 µg/mL. The figure for B7 is 0.0162 µg/mL; for B8 it is 0.0156 µg/mL; for B9 it is 0.0192 µg/mL. Next, B10: 0.00846 µg/mL; B11: 0.0201 µg/mL; B12: 0.0155 µg/mL.

With B13, the EC50 is 0.00443 µg/mL. The figure for B14 is 0.0504 µg/mL; for B15 it is 0.012 µg/mL.

For the molecule B16, the EC50 was 0.016 µg/mL. The molecule B17 had an EC50 of 0.00955 µg/mL. Next, B18: 0.126 µg/mL; B19: 0.0315 µg/mL; B20: 0.0153 µg/mL. As to B21, the EC50 stood at 0.00918 µg/mL. Next, B22: 0.00199 µg/mL.
